Reference: US20070077239A1 (BOARD OF TRUSTEES OF THE UNIVERSITY OF ILLINOIS, published 2007)
Ends that are not written are not given here.

Tests used:
[1] = molecular target: T1, human serum albumin (human, UniProt P02768 25-609); test: 125I-HSA dot-blot on peptide immobilised on nitrocellulose
T1 construct: also called HSA
Procedure: (§1) Peptides were immobilized on nitrocellulose membranes and non-specific binding was blocked with bovine γ-globulin (2 mg/ml in PBS) for 1 h at 22° C. Membranes were washed 2× with PBS and incubated with ¹²⁵I-labeled HSA ([…]) for 2 h at 22° C. Membranes were then washed 4× with PBS containing 0.05% Tween-20 (PBST) and autoradiography was performed. In some experiments, the membranes were directly counted to determine the membrane-associated radioactivity.
(§2) Peptides were immobilized on nitrocellulose membranes and then incubated with 1 ml of 0.3 μM ¹²⁵I-HSA in PBS for 2 h. Other details were described in Example 1. Non-specific binding was determined by incubating membranes with ¹²⁵I-HSA in the absence of any peptides. Results are shown mean±S.E. for three separate experiments made in triplicate.

[2] = molecular target: T1, human serum albumin; test: dot-blot, 2.5 nmoles peptide per filter on nitrocellulose, 0.3 µM 125I-HSA, 2 h
Procedure: as §1, §2

[3] = molecular target: T1, human serum albumin; test: dot-blot, 1.0 nmoles peptide per filter on nitrocellulose, 0.3 µM 125I-HSA, 2 h
Procedure: as §1, §2

[4] = molecular target: T1, human serum albumin; test: dot-blot, 5.0 nmoles peptide per filter on nitrocellulose, 0.3 µM 125I-HSA, 2 h
Procedure: as §1, §2

[5] = molecular target: T1, human serum albumin; test: dot-blot, 10.0 nmoles peptide per filter on nitrocellulose, 0.3 µM 125I-HSA, 2 h
Procedure: as §1, §2

[6] = molecular target: T1, human serum albumin; test: HSA-Sepharose affinity chromatography of human lung extract, elution at pH 4.0, SDS-PAGE, MALDI-MS
Procedure: Protein purification and MALDI-MS: Human lung tissue (180 g) was washed, minced, and homogenized with 20 volumes of buffer A (20 mM Hepes/Tris/0.15 M NaCl/0.1 mM phenylmethylsufonylfluoride [PMSF]/30 pM benzamidine [BM], pH 7.4). The homogenate was centrifuged at 1000×g for 10 min and the supernatant was centrifuged at 100,000×g for 60 min. The pellet obtained was solubilized using 2.5% sodium cholate and 4 M urea (Tiruppathi et al., Proc. Natl. Acad Sci. USA, 93:250-254 (1996)). The solubilized extract was concentrated by ethanol precipitation and re-extracted with Triton X- 100 (Tiruppathi et al., Proc. Natl. Acad Sci. USA, 93:250-254 (1996)). The Triton X-100 concentration in the extract was adjusted to 0.2% and applied on HSAsepharose column (1×10 cm) pre-equilibrated with buffer-B (10 MM Tris-HCl, 0.5 MM EDTA, pH 7.4 containing 0.1 mM PMSF, 30 [M BM, and 0.2% Triton X-100). The column was washed and bound proteins were eluted with 20 ml of 0.1 M citrate buffer pH 4.0 containing 0.2% Triton X- 100. The proteins eluted were separated on SDS-PAGE, stained with Coomassie Brilliant Blue R-250 (CBBR-250) (FIG. 1A). The protein bands excised were digested with trypsin and peptides were analyzed using MALDI-MS at Yale University Biotechnology Resource Laboratory (New Haven, Conn.). The peptide masses were compared with known sequence using Profound search analysis on OWL database. […]

[7] = molecular target: T2, rat serum albumin (rat, UniProt P02770 25-608); test: binding of albumin to the immobilised peptide; details not given
T2 construct: also called RSA
T2 sequence (P02770 25-608 limits assumed): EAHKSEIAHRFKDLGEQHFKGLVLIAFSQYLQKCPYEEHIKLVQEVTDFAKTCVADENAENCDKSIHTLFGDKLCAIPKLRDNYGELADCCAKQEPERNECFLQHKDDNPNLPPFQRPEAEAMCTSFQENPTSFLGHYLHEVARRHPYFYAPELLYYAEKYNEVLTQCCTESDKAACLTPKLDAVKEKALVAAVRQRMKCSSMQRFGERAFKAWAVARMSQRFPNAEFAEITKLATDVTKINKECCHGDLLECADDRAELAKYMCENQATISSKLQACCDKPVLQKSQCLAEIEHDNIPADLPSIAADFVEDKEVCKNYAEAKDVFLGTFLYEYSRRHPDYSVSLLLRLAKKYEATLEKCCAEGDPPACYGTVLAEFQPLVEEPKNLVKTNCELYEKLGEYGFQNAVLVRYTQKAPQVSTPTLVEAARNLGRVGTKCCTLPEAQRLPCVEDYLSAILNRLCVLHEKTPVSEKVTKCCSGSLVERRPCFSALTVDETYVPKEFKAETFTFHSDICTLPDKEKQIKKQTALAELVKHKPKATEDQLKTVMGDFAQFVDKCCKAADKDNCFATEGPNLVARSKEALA

binding result [1] | 125I-HSA bound (pmoles/filter) [2] | 125I-HSA bound (pmoles/filter) [3] | 125I-HSA bound (pmoles/filter) [4] | 125I-HSA bound (pmoles/filter) [5] | binding result [6] | binding result [7] | Binder
no binding | 0.11 pmoles/filter | 0.01 pmoles/filter | 0.14 pmoles/filter | 0.19 pmoles/filter | – | – | GLATELGSLNPGWDGEGLYQEAGGIVGAMV-NH2 [MPO-MT-peptide]
no binding | 0.06 pmoles/filter | 0.05 pmoles/filter | 0.08 pmoles/filter | 0.11 pmoles/filter | – | – | EARKIV-NH2 (Synthetic hexapeptide from MPO-HC; also called EARKIV motif) [EARKIV peptide]
– | – | – | – | – | binds | – | MPO-HC (60 kDa protein isolated from human lung tissue) (enzyme, UniProt P05164 279-745, looked up, domain: heavy chain (HC); also called MPO heavy chain) VNCETSCVQQPPCFPLKIPPNDPRIKNQADCIPFFRSCPACPGSNITIRNQINALTSFVDASMVYGSEEPLARNLRNMSNQLGLLAVNQRFQDNGRALLPFDNLHDDPCLLTNRSARIPCFLAGDTRSSEMPELTSMHTLLLREHNRLATELKSLNPRWDGERLYQEARKIVGAMVQIITYRDYLPLVLGPTAMRKYLPTYRSYNDSVDPRIANVFTNAFRYGHTLIQPFMFRLDNRYQPMEPNPRVPLSRVFFASWRVVLEGGIDPILRGLMATPAKLNRQNQIAVDEIRERLFEQVMRIGLDLPALNMQRSRDHGLPGYNAWRRFCGLPQPETVGQLGTVLRNLKLARKLMEQYGTPNNIDIWMGGVSEPLKRKGRVGPLLACIIGTQFRKLRDGDRFWWENEGVFSMQQRQALAQISLPRIICDNTGITTVSKNNIFMSNSYPRDFVNCSTLPALNLASWREAS
– | 1.45 pmoles/filter | 0.31 pmoles/filter | 2.93 pmoles/filter | 6.55 pmoles/filter | – | binds | MPO-WT-peptide (MPO-HC sequence 425-454) (C-terminal amide, Immobilised on nitrocellulose in the dot-blot; also called ADS) peptide: not shown
